This is an account of results in the Immune Epitope Database (IEDB).

The target of assay [1] is HLA-B*15:01. As to the kind of experiment: IEDB peptide-MHC binding, purified MHC/direct/fluorescence; filed as Kd, often an IC50 or EC50 that approximates it; ≥ and ≤ were set here for values at or beyond the usual limits of such assays.
The target in the next assay is HLA-B*07:02. Described as above. The conditions noted are these: source organism: Vibrio parahaemolyticus.
Assay [2] deals with HLA-B*51:01. The assay is described as above.
The next assay has as its target HLA-A*32:01. As to the kind of experiment: IEDB peptide-MHC binding, purified MHC/competitive/radioactivity; filed as Kd, often an IC50 or EC50 that approximates it; ≥ and ≤ were set here for values at or beyond the usual limits of such assays.
For assay [3], the target named is HLA-B*57:01. The description is as above.
The target of another assay is HLA-A*11:01. The experiment in a line: IEDB peptide-MHC binding, purified MHC/direct/fluorescence; filed as Kd, often an IC50 or EC50 that approximates it; ≥ and ≤ were set here for values at or beyond the usual limits of such assays. The conditions noted are these: source organism: Orthohantavirus hantanense.
Another assay concerns the target HLA-C*15:02. The assay is described as above.
The target of assay [4] is HLA-B*58:01. The description is as above.
Assay [5] has as its target HLA-A*68:02. As to the kind of experiment: IEDB peptide-MHC binding, purified MHC/competitive/radioactivity; filed as Kd, often an IC50 or EC50 that approximates it; ≥ and ≤ were set here for values at or beyond the usual limits of such assays. The conditions noted are these: source organism: Dengue virus 2 Jamaica/1409/1983.
The next assay concerns the target HLA-B*45:06. The experiment in a line: IEDB peptide-MHC binding, purified MHC/competitive/fluorescence; filed as Kd, often an IC50 or EC50 that approximates it; ≥ and ≤ were set here for values at or beyond the usual limits of such assays.
A further assay has as its target HLA-B*15:42. The assay is described as above.
For a further assay, the target named is HLA-B*83:01. The assay is described as above.
The target of a further assay is HLA-B*46:01. The description is as above. The conditions noted are these: source organism: Zaire ebolavirus.
Assay [6] concerns the target HLA-A*69:01. The description is as above.
In another assay the target is HLA-B*18:01. Described as above.
In a further assay the target is HLA-B*27:03. The assay is described as above.
The target of assay [7] is HLA-A*26:01. The description is as above. The conditions noted are these: source organism: Zaire ebolavirus.
Assay [8] concerns the target HLA-B*39:01. Described as above.
Another assay addresses HLA-A*02:01. Described as above.
Another assay concerns the target HLA-A*24:02. The experiment in a line: IEDB peptide-MHC binding, purified MHC/competitive/fluorescence; ≥ and ≤ were set here for values at or beyond the usual limits of such assays. The conditions noted are these: source organism: Sudan ebolavirus.
The target of another assay is HLA-A*02:11. The experiment in a line: IEDB peptide-MHC binding, purified MHC/direct/fluorescence; filed as Kd, often an IC50 or EC50 that approximates it; ≥ and ≤ were set here for values at or beyond the usual limits of such assays.
Another assay deals with HLA-A*29:02. The assay is described as above.
The target of assay [9] is HLA-A*68:02. The description is as above.
A further assay has as its target HLA-A*02:19. The assay is described as above.
Another assay has as its target HLA-A*02:16. The assay is described as above.
Another assay addresses HLA-A*02:03. Described as above.
In a further assay the target is HLA-A*03:01. The description is as above.
The target in a further assay is HLA-A*02:12. The assay is described as above.
Assay [10] deals with HLA-B*58:01. The experiment in a line: IEDB peptide-MHC binding, purified MHC/competitive/radioactivity; filed as Kd, often an IC50 or EC50 that approximates it; ≥ and ≤ were set here for values at or beyond the usual limits of such assays.
Assay [11] concerns the target HLA-B*39:01. As to the kind of experiment: IEDB peptide-MHC binding, purified MHC/direct/fluorescence; filed as Kd, often an IC50 or EC50 that approximates it; ≥ and ≤ were set here for values at or beyond the usual limits of such assays. The conditions noted are these: source organism: Camelpox virus M-96.
Assay [12] deals with HLA-B*15:01. As to the kind of experiment: IEDB peptide-MHC binding, purified MHC/competitive/fluorescence; filed as Kd, often an IC50 or EC50 that approximates it; ≥ and ≤ were set here for values at or beyond the usual limits of such assays. The note with it: source organism: Zaire ebolavirus.
A further assay addresses HLA-B*15:17. The assay is described as above. The conditions noted are these: source organism: Zaire ebolavirus.
In assay [13] the target is HLA-B*51:01. Described as above. The conditions noted are these: source organism: Zaire ebolavirus.
The target of assay [14] is HLA-B*57:01. The description is as above. The conditions noted are these: source organism: Zaire ebolavirus.
Another assay concerns the target HLA-A*24:03. As to the kind of experiment: IEDB peptide-MHC binding, purified MHC/direct/fluorescence; filed as Kd, often an IC50 or EC50 that approximates it; ≥ and ≤ were set here for values at or beyond the usual limits of such assays. The conditions noted are these: source organism: Zaire ebolavirus.
The target of assay [15] is HLA-A*26:01. The description is as above. The conditions noted are these: source organism: Orthohantavirus moroense.
For assay [16], the target named is HLA-A*69:01. The description is as above. The note with it: source organism: West Nile virus.
The mark [17] stands for this setting: source organism: Dengue virus 2 Jamaica/1409/1983.
Where [18] appears, read: source organism: human gammaherpesvirus 4.
The mark [19] stands for this setting: source organism: Zaire ebolavirus.
Where [20] appears, read: source organism: Mycobacterium tuberculosis C.
Setting [21] is: source organism: Dengue virus 4 Philippines/H241/1956.
The mark [22] stands for this setting: source organism: West Nile virus.
[23] abbreviates: source organism: Ebola virus Yambio0403.
The mark [24] stands for this setting: source organism: Orthohantavirus puumalaense.
Setting [25] is: source organism: Limestone Canyon virus.

pIC50, pKd: −log10 of the molar value.

For the sequence EPATQTFDM, the pKd in the assay with HLA-B*15:01 [1] (source organism: Vibrio parahaemolyticus RIMD 2210633) is not above 4.70; in the assay with HLA-B*07:02, 6.92; in the assay with HLA-B*51:01 [2] (source organism: Vibrio parahaemolyticus) it was not above 4.70.

HTWTEQYKF: the pKd is 6.82 in the assay with HLA-A*32:01 (setting [17]) and 8.63 in the assay with HLA-B*57:01 [3] (setting [17]).

As to ISNQEPLKL, the pKd in the assay with HLA-A*11:01 is 4.73; with HLA-C*15:02 (source organism: Orthohantavirus dobravaense) it was 8.05; with HLA-B*58:01 [4] (source organism: Orthohantavirus hantanense) it was 6.98.

ESSPNPTIEA: the pKd with HLA-A*68:02 [5] is 7.28; with HLA-B*57:01 [3] (setting [17]), 5.68.

For the sequence TEMYIMYAM, the pKd with HLA-B*45:06 (setting [18]), with HLA-B*15:42 (setting [18]) and with HLA-B*83:01 (setting [18]) was not above 5.30 in each case.

As to KCNPNLHYW, the pKd with HLA-B*46:01, with HLA-A*69:01 [6] (setting [19]), with HLA-B*18:01 (setting [19]), with HLA-B*27:03 (setting [19]), with HLA-A*26:01 [7] and in the assay with HLA-B*39:01 [8] (setting [19]) was not above 4.70 each time. Besides, the pKd in the assay with HLA-A*02:01 (setting [19]), with HLA-A*02:11 (setting [19]), with HLA-A*29:02 (setting [19]), with HLA-A*68:02 [9] (setting [19]), with HLA-A*02:19 (setting [19]) and in the assay with HLA-A*02:16 (setting [19]) was not above 4.70 throughout. Further, the pKd was not above 4.70 with HLA-A*02:03 (setting [19]); not above 4.70 with HLA-A*03:01 (setting [19]); not above 4.70 in the assay with HLA-A*02:12 (setting [19]); 5.59 in the assay with HLA-B*58:01 [4] (source organism: Ebola virus - Eckron (Zaire, 1976)). The same sequence had a pIC50 with HLA-A*24:02 of 6.42.

For the sequence KSLQTTRRF, the pKd in the assay with HLA-C*15:02 (source organism: Histophilus somni 129PT) was 6.58.

Regarding WMADVPLQW, in the assay with HLA-B*58:01 [10] (source organism: Dengue virus 3 Singapore/8120/1995), the pKd is 9.28.

Regarding RPMLARLTV, the figures for the pKd in the assay with HLA-B*45:06 (setting [20]), in the assay with HLA-B*15:42 (setting [20]) and with HLA-B*83:01 (setting [20]) were not above 5.30, not above 5.30 and 6.73, respectively.

In the case of KTSIGLLCVM, in the assay with HLA-B*57:01 [3] (source organism: Dengue virus 1 Singapore/S275/1990), the pKd was 7.94.

In turn, YHDDDNTTT gave a pKd with HLA-B*39:01 [11] of 6.46.

With KTWGKAKIF, the pKd with HLA-A*32:01 (setting [21]) is 7.22; in the assay with HLA-B*57:01 [3] (setting [21]) it was 7.44.

For ERSWNTGFDW, the pKd with HLA-B*58:01 [10] (setting [21]) is 6.17.

As to RPAADGKTV, the pKd with HLA-B*51:01 [2] (setting [22]) was not above 4.70.

With SWHHTSDDF, the pKd with HLA-B*46:01, with HLA-A*69:01 [6] (setting [19]), in the assay with HLA-B*18:01 (setting [19]), in the assay with HLA-B*27:03 (setting [19]), with HLA-A*26:01 [7] and in the assay with HLA-B*15:01 [12] was not above 4.70 each time. Besides, the pKd in the assay with HLA-B*15:17, in the assay with HLA-B*39:01 [8] (setting [19]), in the assay with HLA-B*51:01 [13], in the assay with HLA-A*02:01 (setting [19]), with HLA-B*57:01 [14] and with HLA-A*02:11 (setting [23]) was not above 4.70 each time. Moreover, the pKd with HLA-A*29:02 (setting [23]) is not above 4.70; in the assay with HLA-A*68:02 [9] (setting [23]), not above 4.70; in the assay with HLA-A*24:03, 7.73; with HLA-A*02:19 (setting [23]), not above 4.70; with HLA-A*02:16 (setting [23]) it was not above 4.70; in the assay with HLA-A*02:03 (setting [23]), not above 4.70. The pKd in the assay with HLA-A*03:01 (setting [23]) and in the assay with HLA-A*02:12 (setting [23]) was not above 4.70 in each case.

As to ATKDSFQSF, the pKd with HLA-A*69:01 [6] (setting [24]), with HLA-B*18:01 (setting [24]), in the assay with HLA-B*27:03 (setting [24]), with HLA-B*39:01 [8] (setting [24]), with HLA-A*02:01 (setting [24]) and with HLA-A*02:11 (setting [25]) was not above 4.70 each time. The pKd with HLA-A*68:02 [9] (setting [25]) was not above 4.70; with HLA-A*26:01 [15], 6.26; in the assay with HLA-A*02:19 (setting [25]), not above 4.70; with HLA-A*02:16 (setting [25]), not above 4.70; with HLA-B*15:01 [1] (source organism: Orthohantavirus moroense) it was 6.43; with HLA-A*02:03 (setting [25]), not above 4.70. Also, the pKd with HLA-A*03:01 (setting [25]) and with HLA-A*02:12 (setting [25]) was not above 4.70 in each case.

RLARAIIEL: the results for the pKd with HLA-A*69:01 [16] and in the assay with HLA-C*15:02 (setting [22]) were 5.42 and 5.62, respectively.

In the case of GGRAHRMAL, the pKd with HLA-C*15:02 (setting [22]) and with HLA-B*51:01 [2] (setting [22]) was not above 4.70 in each case.

As for SAIVLEFFMM, the pKd with HLA-B*58:01 [10] (source organism: Dengue virus 3 Martinique/1243/1999) is 6.70.

What is called pKd is the negative decadic logarithm of the Kd, by convention in mol/L. The pIC50 is the IC50 on a negative log10 scale, so that one unit is a factor of ten. Lower therefore signals a high IC50.
